Reference: US20050245441A1

Target: rat GIP receptor (rat) (UniProt P43219)
Assay: cell-based or functional assay

Sequence of UniProt P43219 (P43219 19-455): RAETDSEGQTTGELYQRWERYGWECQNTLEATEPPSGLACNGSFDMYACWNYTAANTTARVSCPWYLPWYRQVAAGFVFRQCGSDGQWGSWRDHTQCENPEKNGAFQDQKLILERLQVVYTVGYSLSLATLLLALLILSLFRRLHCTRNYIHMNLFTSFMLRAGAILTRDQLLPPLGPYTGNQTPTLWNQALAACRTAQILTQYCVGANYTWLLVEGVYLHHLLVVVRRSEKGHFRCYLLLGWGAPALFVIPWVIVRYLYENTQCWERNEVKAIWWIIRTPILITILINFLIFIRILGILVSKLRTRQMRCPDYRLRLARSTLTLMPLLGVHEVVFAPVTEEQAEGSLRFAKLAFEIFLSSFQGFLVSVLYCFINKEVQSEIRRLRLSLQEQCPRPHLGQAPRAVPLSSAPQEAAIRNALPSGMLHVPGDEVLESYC

cell proliferation (CyQUANT DNA content) of cultured adult hippocampal progenitor cells, 1 nM GIP, 48 h (% increase relative to control): 74.5
methyl-[3H]-thymidin incorporation in cultured adult hippocampal progenitor cells, 1 nM GIP, 24 h (% increase compared to control): 32.4
Substance: synthetic porcine GIP (Sigma) (from UniProt P01281 1-42) (peptide)
